Test results published in the supplement of paper PMC11865577.

tested on: TO-N3-2 (biotin conjugate); assay: pull-down binding Z-score (relative to library population); higher = stronger binding; settings: RNA library: Library-2
In short: (§1)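 Biotin-conjugated small molecule (100 pmol) on streptavidin beads was incubated with 1 μg of heat-folded Cy5- or Cy3-end-labelled RNA library in phosphate/NaCl/KCl buffer at 25 °C for 60 min. Following three washes, RNA was eluted with hot SDS and hybridised at 55.5 °C for 20 h to a DNA barcode microarray. The binding value is a Z-score computed from the library mean and standard deviation, after subtraction of beads without compound and averaging of barcoded replicate probes with the highest and lowest excluded.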

Row | Sequence | pull-down binding Z-score
1 | GUGGCCUUGGACAAGCCUCUUGGUUAC [hsa-mir-4672] | 0.885
2 | GUGGCUAAUCAGCUGAUGGUGCCAC [hsa-mir-4715] | -0.545
3 | GUGGCUUCAACCAAGUUCAAAGUCAC [hsa-mir-3186] | -0.383
4 | GUGGCUUGUGGCUGAGUGUCACGCUGC [hsa-mir-6068] | 0.225
5 | GUGGGUCAAGUUUAGAGAUGCACCAAC [hsa-mir-490] | 1.5
6 | GUGGGUUGUGAGGACUGAGGCCAGACCCAC [hsa-mir-181d] | 0.803
7 | GUGGUGGGCACUGCUGGGGUGGGCACAGCAGCCAUGCAGAGCGGGCAUUUGACCCCGUGCCACCCUUUUCCCCAG [hsa-mir-1227] | 2.64
8 | GUGGUUUCAGGGCAGUGAUGUUGCCCCUCGGAAGAUAACUAU [hsa-let-7b] | 0.235
9 | GUGUACAGGGAGGAGACUGUACGUGAGAGAUAGUCAGAUCCGCAUGUUAGAGCAGAGUCUCCUUCGUGUACAG [hsa-mir-4441] | 0.631
10 | GUGUACCUCAUGUGUGUACAC [hsa-mir-5692a-2_5692a-1] | 0.335
11 | GUGUAGAGGCGGAGCACAG [hsa-mir-1471] | 1.46
12 | GUGUAGGGGUGGCUACAC [hsa-mir-4717] | 0.235
13 | GUGUAUGGGCUGAGCCUUGC [hsa-mir-6805] | 0.868
14 | GUGUCCUGAAAUUCACAGGACUG [hsa-mir-4700] | 0.643
15 | GUGUCCUUUCUUCUGAGAGCUGGACAC [hsa-mir-6500] | -0.336
16 | GUGUCGCCCCACGAGGGGGACUGU [hsa-mir-4322] | 0.483
17 | GUGUCUGGAGACGCCAGGCAGC [hsa-mir-4323] | 1.13
18 | GUGUCUGGCCCCAGCAGCCCAGACU [hsa-mir-6751] | 1.39
19 | GUGUGGAGAGAGCACUGAGCCUGCCCACC [hsa-mir-6849] | 1.45

Row | Sequence | pull-down binding Z-score
20 | GUGUGUGGCGUGGGUGCUGCGGGGCCGUCAGGGUGCCUGCGGGACGCUCAC [hsa-mir-6765] | 1.73
21 | GUGUGUUACCUAGAAAUAGCACU [hsa-mir-378a] | -0.118
22 | GUGUUCACACAUAAUGUGUACACCAUGUGUGUACAC [hsa-mir-5692b] | -0.606
23 | GUGUUGGGUAUAAGUAACA [hsa-mir-1270] | 0.457
24 | GUGUUUAUUUUUUACUAAAUAG [hsa-mir-4766] | -0.723
25 | GUGUUUGUGACAUAAUUUGU [hsa-mir-325] | -0.231
26 | GUGUUUUCUCCUUUAGAGAGAGCUG [hsa-mir-4299] | 0.309
27 | GUUACUAAUCUAACUAAUUGUAAC [hsa-mir-582] | -0.722
28 | GUUACUGUGGGAACUGGAGGUAAC [hsa-mir-132] | 0.708
29 | GUUAGACCUGGCCCUCUGUCUAAU [hsa-mir-429] | 0.3
30 | GUUAGUUGUGGACACAUACUAAC [hsa-mir-3912] | -1.25
31 | GUUCAGAGUCUGUUUUUGUCUAGC [hsa-mir-29c] | -0.0332
32 | GUUCCUGUGAUUUUUC [hsa-mir-198] | -0.289
33 | GUUCGCUUAAUUUAUGACGAAUC [hsa-mir-487a] | -0.483
34 | GUUCGGGGGUUCCGACGGCGAC [hsa-mir-6790] | 1.76
35 | GUUGAAAAAUAUCUAUGUAUUAGUAAAC [hsa-mir-649] | -0.74
36 | GUUGACUGUUGAAUCUCAUGGCAAC [hsa-mir-21] | 0.204
37 | GUUGCAUGUUGUCACGGCCUCAAUGCAAU [hsa-mir-32] | 0.552

tested on: TO-N3 (biotin conjugate); assay: as above; settings: RNA library: Library-2
In short: as §1

Row | Sequence | pull-down binding Z-score
38 | GUCCUGACUGCGUGCCAGGGGC [hsa-mir-3650] | -0.175
39 | GUCCUGCCCUCACUGGGAACCCCCUUCCCUCUGGGUACCAG [hsa-mir-1324] | 1.88
40 | GUCUCGGUCCUUUGGAACGUGGC [hsa-mir-4470] | -0.607
41 | GUCUGCCAAAACCUUGGCAGAC [hsa-mir-3913-1] | -1.02
42 | GUCUGCCAAGGUUUUGGCAGAC [hsa-mir-3913-2] | -0.992
43 | GUCUGGCAUUGUCUGAUAUAC [hsa-mir-1294] | 1.2
44 | GUCUGUCACUGGGGAAGUC [hsa-mir-4682] | 1.19
45 | GUCUGUUUUCUUCAUGGUUUUCUGAC [hsa-mir-6759] | -0.999
46 | GUCUUGAUCCCCCACCCCAAGAC [hsa-mir-642b] | -0.41
